Numbering of substitutions follows the chain as printed. Numbers in names are those of the source.
What was measured:
crystal structure = target: the molecule itself; assay: crystal structure
cross-linking = target: the molecule itself; assay: cross-linking
[1] = target: T1, Aurora A kinase domain (residues 116 to 389) (human, UniProt O14965 116-389); assay: crystal structure
T1 sequence (looked up): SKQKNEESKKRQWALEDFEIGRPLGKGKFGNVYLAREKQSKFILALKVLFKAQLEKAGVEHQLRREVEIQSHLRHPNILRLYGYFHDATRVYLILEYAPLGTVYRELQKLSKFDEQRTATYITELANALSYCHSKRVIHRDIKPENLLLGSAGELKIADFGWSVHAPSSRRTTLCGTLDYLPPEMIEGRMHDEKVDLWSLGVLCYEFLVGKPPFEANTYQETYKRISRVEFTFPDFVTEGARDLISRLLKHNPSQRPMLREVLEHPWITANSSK

B1: CoAlated unphosphorylated C247V + C319V t-Aurora A (domain or fragment, UniProt Q9ULW0 7-20, looked up)
chain: SYSYDAPSDFINFSSKQKNEESKKRQWALEDFEIGRPLGKGKFGNVYLAREKQSKFILALKVLFKAQLEKAGVEHQLRREVEIQSHLRHPNILRLYGYFHDATRVYLILEYAPLGTVYRELQKLSKFDEQRTATYITELANALSYVHSKRVIHRDIKPENLLLGSAGELKIADFGWSVHAPSSRRTTLCGTLDYLPPEMIEGRMHDEKVDLWSLGVLVYEFLVGKPPFEANTYQETYKRISRVEFTFPDFVTEGARDLISRLLKHNPSQRPMLREVLEHPWITANSSK
modifications: coenzyme A disulfide adduct (CoAlation) on Cys290 on approximately two thirds of the protein; unphosphorylated
B1: binds (crystal structure).

B2: t-Aurora A C247V + D256N + C319V kinase-dead mutant (Cys290-Cys290 disulfide homodimer) (domain or fragment, UniProt Q9ULW0 7-20, looked up)
chain: B1 chain with D155N
modifications: disulfide bond between Cys290 of the two monomers
B2: binds (crystal structure).

B3: t-Aurora A C247V + C319V double mutant, unphosphorylated, catalytically active (used for the disulfide homodimer) (domain or fragment, UniProt Q9ULW0 7-20, looked up)
chain: B1 chain
B3: binds (cross-linking).

B4: TPX2 fragment (residues 7 to 20) (domain or fragment, UniProt Q9ULW0 7-20, looked up)
chain: SYSYDAPSDFINFS
B4: binds [1].
